The RNAGym collection of RNA variant scans (doi:10.7554/elife.90254)

B1: LINE1-full (parent)
chain: UACGUAGGUGGUUUUCCCCUGAUAGUGCUAAGGGGGCCUGGAAGUUUGGACUGGGCAGAGCUCAACACAGCGUGGCAAAGUGGCUGUGGCUAGACUGCCUCUCUGGAUUCCUCGUCACUCAGCAGGGCAUCUCUGAGAGAAAUGCC

Variants of: B1
Test: self-cleavage, relative activity (ratio to wild type); higher = more cleavage; in vitro, sequencing; the parent is a self-cleaving ribozyme

| Variant | self-cleavage |
| --- | --- |
| U87A U119C | 0.07 |
| U87A U119A | 0.08 |
| U91A A142G | 0.63 |
| U85C U104C | 0.18 |
| U85C U104A | 0.08 |
| U87A U115G | 0.13 |
| G86A G127C | 0.09 |
| U91A A136U | 0.54 |
| U91A A136G | 0.36 |
| U87C G97A | 0.12 |
| U85C U87A | 0.07 |
| U85C U87C | 0.04 |
| U85C G122A | 0.14 |
| U87A U109A | 0.08 |
| U87A G126U | 0.08 |
| U85A A138G | 0.07 |
| U85A A138U | 0.06 |
| U85C C95U | 0.06 |
| U91A U96A | 0.04 |
| U85C G139A | 0.2 |
| U87A G88C | 0.08 |
| C90U U112C | 0.03 |
| C90U U112A | 0.04 |
| C90U G93U | 0.04 |

| Variant | self-cleavage |
| --- | --- |
| U87C C103A | 0.1 |
| U91A U112C | 0.58 |
| U85A U104A | 0.03 |
| U85A U104G | 0.02 |
| U85A U104C | 0.13 |
| G86A A140G | 0.03 |
| U87C U143C | 0.21 |
| U87C U143A | 0.22 |
| G89U C123G | 0.07 |
| U91A U104A | 0.46 |
| U91A A117U | 0.6 |
| U85A A136G | 0.11 |
| U87G U115A | 0.24 |
| U85C C99A | 0.16 |
| G86A U108A | 0.02 |
| U87G A124C | 0.32 |
| G88C A129G | 0.12 |
| G89A U102C | 0.05 |
| G86A U112A | 0.08 |
| U87A A92G | 0.13 |
| G89A A92U | 0.07 |
| U87A A124U | 0.08 |
| U87C A121U | 0.2 |
| U87A A138G | 0.07 |

| Variant | self-cleavage |
| --- | --- |
| U85G U132C | 0.14 |
| U87C U100C | 0.26 |
| U87C U100A | 0.1 |
| C84U U102C | 0.16 |
| G86A A124G | 0.02 |
| U85A U91A | 0.11 |
| U85A U91C | 0.04 |
| G88U A138G | 0.06 |
| G88A U91C | 0.05 |
| U91A A140G | 0.45 |
| G89A U91C | 0.05 |
| G86A A138G | 0.13 |
| U85A A124U | 0.08 |
| C90U U119C | 0.03 |
| U87A A129U | 0.08 |
| G86A | 0.08 |
| G86U | 0.1 |
| G86C | 0.06 |
| U87C U132C | 0.19 |
| U85A U108C | 0.12 |
| U85A U108G | 0.12 |
| U85A U108A | 0.17 |
| G88A A138G | 0.06 |
| U85A U115A | 0.09 |

| Variant | self-cleavage |
| --- | --- |
| U85A U115C | 0.13 |
| G89C A138G | 0.07 |
| U85G U134C | 0.16 |
| U85A G126U | 0.07 |
| U85G U143C | 0.13 |
| C90U U108G | 0.09 |
| G88A U104C | 0.15 |
| U87A G97U | 0.08 |
| U85C A138G | 0.17 |
| U85C A138U | 0.13 |
| U87A A140U | 0.11 |
| C90A A107G | 0.04 |
| C90A A107U | 0.03 |
| C84U A141G | 0.14 |
| U87C A141U | 0.2 |
| U87C U119A | 0.19 |
| U87C U119C | 0.24 |
| U87C U119G | 0 |
| U85A C128G | 0.06 |
| C84U A142G | 0.12 |
| U87G U112C | 0.05 |
| U91A U102C | 0.22 |
| U87C A129U | 0.15 |
| U87C A129G | 0.07 |

| Variant | self-cleavage |
| --- | --- |
| U87A C110A | 0.06 |
| U87G A117G | 0 |
| U85C U143C | 0.1 |
| U85C U143A | 0.19 |
| U85G A138U | 0 |
| U87C U96A | 0.09 |
| C84U A140G | 0.07 |
| C90U U134G | 0.04 |
| G89U A107G | 0.04 |
| C90U A107G | 0.03 |
| G88C U132C | 0.09 |
| G88A U143A | 0.07 |
| U91A U109C | 0.65 |
| G88A A117G | 0.07 |
| G88A A121G | 0.06 |
| U85A U96A | 0.12 |
| U85A U96C | 0.09 |
| G86U U100C | 0.16 |
| G88A C120U | 0.09 |
| U87G U130C | 0.41 |
| U85A A117C | 0.07 |
| U85A A117U | 0.09 |
| U85A A117G | 0.15 |
| U87C C90U | 0.07 |

| Variant | self-cleavage |
| --- | --- |
| C90U U143C | 0 |
| U87C A136C | 0.16 |
| U87C A136G | 0.24 |
| U91A G144A | 0.88 |
| U85A U102C | 0.13 |
| U85C U91C | 0.06 |
| U87C A117U | 0.19 |
| U87C A117C | 0 |
| U87C A117G | 0.41 |
| C84U C98G | 0.08 |
| U91A A124U | 0.48 |
| U87A C131U | 0.08 |
| U85A A92U | 0.11 |
| U85A A92G | 0.13 |
| U85C U102C | 0.12 |
| G89U U134G | 0.04 |
| G88A C110U | 0.04 |
| U87C G139A | 0.14 |
| U85G A94G | 0.36 |
| U91A A92U | 1.33 |
| U91A A92G | 0.16 |
| C84U A117G | 0.2 |
| U87A G114A | 0.05 |
| G89A U143A | 0.05 |

| Variant | self-cleavage |
| --- | --- |
| U85G U109C | 0 |
| U85A G93U | 0.08 |
| U85A G93A | 0.05 |
| G88U U100C | 0.04 |
| U91A U143A | 0.52 |
| G89C A136G | 0.06 |
| C90G U102C | 0.01 |
| U87G A121U | 0.2 |
| U85A U134G | 0.12 |
| G89U G93A | 0.04 |
| U85C C123G | 0.15 |
| U87C G122U | 0.3 |
| C90A | 0.04 |
| C90U | 0.03 |
| C90G | 0.03 |
| U87C G144A | 0.24 |
| U85C G89A | 0.03 |
| G86A C118U | 0.09 |
| G88C G125C | 0.06 |
| U85A A142G | 0.08 |
| U87G A138U | 0.48 |
| U87G A138G | 0.14 |
| C84U A124U | 0.18 |
